Results: the supplement of paper PMC7125110
Fewer inactive variants are shown than the library holds.

B1: glmS ribozyme (parent)
chain: AUAAAAGCGCCAGAACUACAGAAAUGUAGUUGACGAGGAGGAGGUUUAUCGAAUUUUCGGCGGAUGCCUCCAAA

Columns and labels:
Conditions in all cases: with glucosamine-6-phosphate
glucosamine-6-phosphate [1] = variants of: B1; experiment: self-cleavage kobs at 40 uM GlcN6P; higher = faster cleavage; RNA array
Summary of the method: (§1)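 Weighted Michaelis–Menten fits across concentrations supplied kcat and KM, based on kobs from one- or two-exponential decay fits to normalised per-tile medians. The data came from barcoded ribozyme variants transcribed in situ by E. coli RNA polymerase on sequenced MiSeq chips and tracked at 37 °C by a hybridised Cy3 probe. Glucosamine-6-phosphate (40 μM to 10 mM) in HEPES/KCl/Mg(OAc)2 buffer was flowed in.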

glucosamine-6-phosphate [2] = variants of: B1; experiment: self-cleavage kobs at 10000 uM GlcN6P; higher = faster cleavage; RNA array
Summary of the method: as §1

glucosamine-6-phosphate [3] = variants of: B1; experiment: self-cleavage kobs at 160 uM GlcN6P; higher = faster cleavage; RNA array
Summary of the method: as §1

glucosamine-6-phosphate [4] = variants of: B1; experiment: self-cleavage kobs at 640 uM GlcN6P; higher = faster cleavage; RNA array
Summary of the method: as §1

glucosamine-6-phosphate [5] = variants of: B1; experiment: self-cleavage kobs at 2500 uM GlcN6P; higher = faster cleavage; RNA array
Summary of the method: as §1

AUAAAACCGCCAGAACUACAGAAAUGUAGUUGACGAGGAGGAGGUUUAUCGAAUUUUCGGCGCAUGCGACCAAA [G7C G63C C68G U69A]
< 1e-05 s⁻¹: self-cleavage kobs at 40 uM GlcN6P (glucosamine-6-phosphate [1]) | self-cleavage kobs at 10000 uM GlcN6P (glucosamine-6-phosphate [2])

AUAAAACCGCCAGAACUACAGAAAUGUAGUUGACGAGGAGGAGGUUUAUCGAAUUUUCGGCGGAUUCCUCCAAA [G7C G66U]
< 1e-05 s⁻¹: self-cleavage kobs at 40 uM GlcN6P (glucosamine-6-phosphate [1]) | self-cleavage kobs at 160 uM GlcN6P (glucosamine-6-phosphate [3]) | self-cleavage kobs at 640 uM GlcN6P (glucosamine-6-phosphate [4]) | self-cleavage kobs at 2500 uM GlcN6P (glucosamine-6-phosphate [5])

AUAAAACCGCCAGAACUACAGAAAUGUAGGUGACUAUGAGGAGGUUUAUCGAAUUUCCGGCGGAUGCCUCGAAA [G7C U30G G35U G37U U57C C71G]
< 1e-05 s⁻¹: self-cleavage kobs at 40 uM GlcN6P (glucosamine-6-phosphate [1]) | self-cleavage kobs at 10000 uM GlcN6P (glucosamine-6-phosphate [2])

AUAAAACCGCCAGAACUACAGAAAUGUAGUUGACGAGGAGGAGGUUGAUCGAAUUGUCUCCGGAUGCCUCCAAA [G7C U47G U56G G59U G60C]
< 1e-05 s⁻¹: self-cleavage kobs at 40 uM GlcN6P (glucosamine-6-phosphate [1])

AUAAAACCGCCAGAACUACAGAAAUGUAGUUGACGAGGAGGAGGUUCAUCGAAUUUUCGGCGGAUGCCUCCAAA [G7C U47C]
< 1e-05 s⁻¹: self-cleavage kobs at 40 uM GlcN6P (glucosamine-6-phosphate [1]) | self-cleavage kobs at 160 uM GlcN6P (glucosamine-6-phosphate [3]) | self-cleavage kobs at 640 uM GlcN6P (glucosamine-6-phosphate [4]) | self-cleavage kobs at 10000 uM GlcN6P (glucosamine-6-phosphate [2])

AUAAAACCGCCAGAACUACAGAAAUGUAGUAGACGAGGAGGAGGUUUAUCGAAUUUUCGGCGGAUGCCUCCAAA [G7C U31A]
< 1e-05 s⁻¹: self-cleavage kobs at 40 uM GlcN6P (glucosamine-6-phosphate [1]) | self-cleavage kobs at 640 uM GlcN6P (glucosamine-6-phosphate [4]) | self-cleavage kobs at 2500 uM GlcN6P (glucosamine-6-phosphate [5]) | self-cleavage kobs at 10000 uM GlcN6P (glucosamine-6-phosphate [2])

AUAAAACCGCCAGAACUACAGAAAUGUAGUUGACGAGGAGGAGCUUUAUCGAAUUUUCGGCGGUUGCCUCCAAA [G7C G44C A64U]
< 1e-05 s⁻¹: self-cleavage kobs at 40 uM GlcN6P (glucosamine-6-phosphate [1]) | self-cleavage kobs at 10000 uM GlcN6P (glucosamine-6-phosphate [2])

AUAAAACCGCCAGAACUACAGAAAUGUAGUGGACGAGGAGGAAGUUUAUCGAAUGUUCGGCGGAUGCUUCCAAA [G7C U31G G43A U55G C68U]
< 1e-05 s⁻¹: self-cleavage kobs at 40 uM GlcN6P (glucosamine-6-phosphate [1])

AUAAAACCGCCAGAACUACAGAAAUGUAGUUGACGAGGAGGAGGUUUAUCAAAUUUUCGGCGGAUGCCUCCAAA [G7C G51A]
< 1e-05 s⁻¹: self-cleavage kobs at 40 uM GlcN6P (glucosamine-6-phosphate [1]) | self-cleavage kobs at 160 uM GlcN6P (glucosamine-6-phosphate [3]) | self-cleavage kobs at 640 uM GlcN6P (glucosamine-6-phosphate [4]) | self-cleavage kobs at 10000 uM GlcN6P (glucosamine-6-phosphate [2])

AUAAAACCGCCAGAACUACAGAAAUGUAGUCGACGAGGAGGACGUUUAUUGAAUUUUCGGCGGAUGCCUCCAAA [G7C U31C G43C C50U]
< 1e-05 s⁻¹: self-cleavage kobs at 40 uM GlcN6P (glucosamine-6-phosphate [1]) | self-cleavage kobs at 160 uM GlcN6P (glucosamine-6-phosphate [3]) | self-cleavage kobs at 640 uM GlcN6P (glucosamine-6-phosphate [4]) | self-cleavage kobs at 10000 uM GlcN6P (glucosamine-6-phosphate [2])

AUAAAACCGCCAGAACUACAGAAAUGUAGUUGACGAGGAGGAGGUUUAUCGAAAUUUCGGCGGAUGCCUCCAAA [G7C U54A]
< 1e-05 s⁻¹: self-cleavage kobs at 40 uM GlcN6P (glucosamine-6-phosphate [1]) | self-cleavage kobs at 640 uM GlcN6P (glucosamine-6-phosphate [4]) | self-cleavage kobs at 10000 uM GlcN6P (glucosamine-6-phosphate [2])

AUAAAACCGCCAGAACUACAGAAAUGUAGUUGACGAGGAGGAGGUUUAACGAAUUUUCGGCGGAUGCCUCCAAA [G7C U49A]
< 1e-05 s⁻¹: self-cleavage kobs at 40 uM GlcN6P (glucosamine-6-phosphate [1]) | self-cleavage kobs at 160 uM GlcN6P (glucosamine-6-phosphate [3]) | self-cleavage kobs at 2500 uM GlcN6P (glucosamine-6-phosphate [5]) | self-cleavage kobs at 10000 uM GlcN6P (glucosamine-6-phosphate [2])

AUAAAACCGCCAGAACUACAGAAAUGUAGUUGACGAGGAGUAGGUUUAUCGAAUUUUCGGCGGAUGCCUCCAAA [G7C G41U]
< 1e-05 s⁻¹: self-cleavage kobs at 40 uM GlcN6P (glucosamine-6-phosphate [1]) | self-cleavage kobs at 160 uM GlcN6P (glucosamine-6-phosphate [3]) | self-cleavage kobs at 2500 uM GlcN6P (glucosamine-6-phosphate [5]) | self-cleavage kobs at 10000 uM GlcN6P (glucosamine-6-phosphate [2])
